B1: TPR t1 (parent)
chain: GACCAAUCUGCCCUCAGAGCUCGAGAACAUCUUCGGAUGCAGAGGAGGCAGGCUUCGGUGGCGCGAUAGCGCCAACGUCCUCAACCUCCAAUGCAUCCCACCACAUGAUGAUGCCUGAAGAGCCUUGGUUUUUUG

Variants of: B1
Experiment: polymerase ribozyme fitness, log enrichment relative to wild type (log ratio); higher = more active; in vitro selection for triplet polymerase activity
Outline: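 Mutant libraries of both subunits of a heterodimeric triplet polymerase ribozyme were PCR-built, transcribed, and selected once in triplicate, with frozen incubation at −7 °C and capture of gel-excised extended constructs on streptavidin beads before RT-PCR. Illumina sequencing of input and output libraries was filtered to genotypes with ≥10 input reads and ≥1 read per output. Fitness is the logarithm of genotype enrichment over wild-type enrichment, using inverse-variance-weighted replicate averages. The logarithm is base 2.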

First: G39A G51U C79U C101U
Second: C62A A90C U112A
The “polymerase ribozyme fitness (log ratio)” value of the first is lower: -5.14 for the first, -2.63 for the second.

Going from G47U U78C to G61A A84U G117A, the “polymerase ribozyme fitness (log ratio)” value falls from -1.44 to -1.64.

Going from G10U C53A C56A G61U A90C to U55A G61C U96A G120C, the “polymerase ribozyme fitness (log ratio)” value rises from -5.6 to -1.22.

First: C53A U78G C82A
Second: C11G C88U U116C
The “polymerase ribozyme fitness (log ratio)” value of the first is higher: 0.638 for the first, -0.109 for the second.

First: C4A G52A C53A C72U A90U U130C
Second: A18C C104A
The “polymerase ribozyme fitness (log ratio)” value of the first is higher: -3.37 for the first, -4.52 for the second.

Compared with C8G G39U C123U, C115U G120C is lower in “polymerase ribozyme fitness (log ratio)” value: 1.42 for the first, -0.978 for the second.

Going from U7C A66U U106C to G63U C97U U112C A121C, the “polymerase ribozyme fitness (log ratio)” value rises from -1.58 to 0.0312.

Going from A6U A26U to A50U G51A C64U C82A A119G, the “polymerase ribozyme fitness (log ratio)” value rises from -3.54 to -0.277.

Going from G77U A84G C85G to C4G G44C, the “polymerase ribozyme fitness (log ratio)” value falls from -2.45 to -2.96.

Going from G117C U129A to G58C U59G C86G, the “polymerase ribozyme fitness (log ratio)” value rises from -6.61 to -0.556.

First: A6G U14G G58A
Second: A50U C70G
The “polymerase ribozyme fitness (log ratio)” value of the first is higher: -0.642 for the first, -4.57 for the second.

First: C53U C62U
Second: C79A U92C C98G C104A C114G
The “polymerase ribozyme fitness (log ratio)” value of the first is higher: -1.01 for the first, -7.71 for the second.

Going from A2G C115A to C13A G51A, the “polymerase ribozyme fitness (log ratio)” value falls from -0.495 to -4.85.

Going from C86A G120C to C40U C104A, the “polymerase ribozyme fitness (log ratio)” value falls from -0.326 to -2.08.

Going from C56U A83C U106A A118U C123G to G35C A50G C53G U67G C124A G135U, the “polymerase ribozyme fitness (log ratio)” value falls from 1.63 to -6.69.

First: C8G G10C G23C G25A G60C C88G G110A
Second: C40U U116G
The “polymerase ribozyme fitness (log ratio)” value of the first is lower: -7.14 for the first, -2.61 for the second.

Going from C13G G71C U125A G128C to A5G C88G, the “polymerase ribozyme fitness (log ratio)” value rises from -3.83 to -1.27.

First: G39U G58A A121U
Second: U33G G52C U78A C98A U112G U116G
The “polymerase ribozyme fitness (log ratio)” value of the first is higher: 1.6 for the first, -7.02 for the second.

Compared with C4G G71A, G69C G122U C124U is higher in “polymerase ribozyme fitness (log ratio)” value: -1.72 for the first, -0.632 for the second.

Going from C12G C34U to C56U C82U, the “polymerase ribozyme fitness (log ratio)” value rises from -3.31 to -0.0659.

Going from C20U G57A G58C to G39A G58A, the “polymerase ribozyme fitness (log ratio)” value rises from -2.72 to -1.7.

Compared with C8U A26U, A90U G113U is lower in “polymerase ribozyme fitness (log ratio)” value: -2.13 for the first, -2.89 for the second.

First: G48C C82A A84C
Second: G36A C64U C88U C101G
The “polymerase ribozyme fitness (log ratio)” value of the first is higher: -1.03 for the first, -1.84 for the second.

Compared with U59C U81G, A6C G57C C72U is higher in “polymerase ribozyme fitness (log ratio)” value: -3.51 for the first, -0.529 for the second.

Going from G45C U129A to G61C G63C G117C U126A G135U, the “polymerase ribozyme fitness (log ratio)” value falls from -2.61 to -4.51.

Going from C72A G135U to U78C U126C U129C, the “polymerase ribozyme fitness (log ratio)” value falls from -0.828 to -2.29.

Going from C12G A26C A27C G36U C97A C101U U109A to G61U A111C, the “polymerase ribozyme fitness (log ratio)” value rises from -7.51 to -0.083.

Compared with C12G G69U C115A, C11G G19U C82U is lower in “polymerase ribozyme fitness (log ratio)” value: 0.211 for the first, -5.29 for the second.

Compared with A68G C114U, G45U G77U U132C is higher in “polymerase ribozyme fitness (log ratio)” value: -5.48 for the first, -1.59 for the second.

First: U7G A41G C53A G61U C79U A90U A111C
Second: C73A C101A
The “polymerase ribozyme fitness (log ratio)” value of the first is lower: -3.04 for the first, -1 for the second.

Compared with G36A G127C, C40A C56G is lower in “polymerase ribozyme fitness (log ratio)” value: -1.81 for the first, -2.58 for the second.

First: G10C U32C G52A G69C U112A G128A
Second: C72G U129A
The “polymerase ribozyme fitness (log ratio)” value of the first is lower: -4.78 for the first, -1.02 for the second.

Going from G35A C49A G60U C86U C89A to C49U C89U, the “polymerase ribozyme fitness (log ratio)” value rises from -7.46 to 0.0169.

First: U32C G63A A74U
Second: G58U C62A U92A
The “polymerase ribozyme fitness (log ratio)” value of the first is higher: -3.86 for the first, -5.81 for the second.

Compared with C11A G60A U112A A118U, G10A G52U C56G C98U G113U is lower in “polymerase ribozyme fitness (log ratio)” value: 0.704 for the first, -6.91 for the second.

Compared with C4A G61A G127A, C70G A84U is lower in “polymerase ribozyme fitness (log ratio)” value: -2.92 for the first, -3.25 for the second.

First: C53G G69C
Second: C11U C79G U92A U106C U112A
The “polymerase ribozyme fitness (log ratio)” value of the first is higher: -0.98 for the first, -5.83 for the second.

Compared with G61A G77A A91G, U21A A29G is higher in “polymerase ribozyme fitness (log ratio)” value: -2.58 for the first, -1.38 for the second.

Compared with G48C A74U, C13G A16U C49A G63A is lower in “polymerase ribozyme fitness (log ratio)” value: -0.843 for the first, -3.65 for the second.

Compared with U7C C31U, U54A C70G is higher in “polymerase ribozyme fitness (log ratio)” value: -4.85 for the first, -2.37 for the second.

First: U7G C20U G60C U133G
Second: A111C G127A
The “polymerase ribozyme fitness (log ratio)” value of the first is higher: -1.91 for the first, -2.45 for the second.

In the case of U14C G61U A75C A105C, the “polymerase ribozyme fitness (log ratio)” value is reported as -3.69.
